The values that follow come from patent US20140348805A1.

For this test, the target named is HLA-A2 (HLA-A*0201) presenting tyrosinase369-377 peptide … on cells (human). Nature of the test: cell-based or functional assay.

“TCR of T cell clone T58 (TCR-T58), human constant regions (from UniProt P01848 1-140)” returned an IFN-γ secretion after co-culture with Mel-93.04A12 (HLA-A2+tyrosinase+) of 1230 pg/mL; a peptide concentration needed for 50% relative lysis (half-maximum lysis), 51Cr-release assay, peptide-pulsed T2 cells of 600 pM; a specific lysis of melanoma cells, 51Cr-release assay of 76%.

For the substance “TCR-T58 with murine constant regions (TCRbeta-P2A-TCRalpha, codon-optimized) (from UniProt P01849 1-136)”, the amount of peptide presented by T2 cells to cause release of 2000 pg/ml interferon-gamma, fold lower than TCR-D115 worked out at 15000 fold; the maximum level of interferon-gamma in 24 hours (T2 cells pulsed with YMD peptide) turned out to be 5000 pg/mL; the peptide amount at first detection of cytokine secretion, fold less than TCR-D115 (PBMC pulsed with YMD peptide) turned out to be 1000 fold; the peptide concentration for 50% of maximal interferon-gamma release, fold lower than TCR-D115 (T2 cells pulsed with YMD peptide) turned out to be 100 fold.
